Patent publication US20150132821, “Systems and Methods for Improving Nuclease Specificity and Activity” (Georgia Tech Research Corporation, published 2015)

T1: S-02 (S2) NK-TALEN (synthetic, UniProt Q56830 SEQ:41-735)
T1 chain: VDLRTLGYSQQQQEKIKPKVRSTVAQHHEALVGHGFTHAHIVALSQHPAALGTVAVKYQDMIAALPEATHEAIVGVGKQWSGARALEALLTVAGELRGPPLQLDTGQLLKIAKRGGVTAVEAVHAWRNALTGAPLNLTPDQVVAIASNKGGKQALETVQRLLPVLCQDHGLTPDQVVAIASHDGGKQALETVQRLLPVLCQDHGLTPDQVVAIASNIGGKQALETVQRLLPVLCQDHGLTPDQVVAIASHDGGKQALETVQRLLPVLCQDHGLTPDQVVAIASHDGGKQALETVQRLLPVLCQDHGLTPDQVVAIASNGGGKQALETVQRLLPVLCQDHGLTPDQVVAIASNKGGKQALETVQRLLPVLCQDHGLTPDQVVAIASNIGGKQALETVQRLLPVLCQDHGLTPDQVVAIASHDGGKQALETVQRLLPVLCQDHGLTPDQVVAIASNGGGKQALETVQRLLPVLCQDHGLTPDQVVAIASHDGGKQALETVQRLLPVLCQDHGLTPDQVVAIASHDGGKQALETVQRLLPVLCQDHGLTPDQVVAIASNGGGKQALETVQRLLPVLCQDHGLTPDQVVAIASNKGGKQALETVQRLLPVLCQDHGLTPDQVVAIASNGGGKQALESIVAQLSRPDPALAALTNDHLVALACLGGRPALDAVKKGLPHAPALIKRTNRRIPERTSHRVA

T2: S-07 (S7) NK-TALEN (synthetic, UniProt B2SU53 SEQ:41-1041)
T2 chain: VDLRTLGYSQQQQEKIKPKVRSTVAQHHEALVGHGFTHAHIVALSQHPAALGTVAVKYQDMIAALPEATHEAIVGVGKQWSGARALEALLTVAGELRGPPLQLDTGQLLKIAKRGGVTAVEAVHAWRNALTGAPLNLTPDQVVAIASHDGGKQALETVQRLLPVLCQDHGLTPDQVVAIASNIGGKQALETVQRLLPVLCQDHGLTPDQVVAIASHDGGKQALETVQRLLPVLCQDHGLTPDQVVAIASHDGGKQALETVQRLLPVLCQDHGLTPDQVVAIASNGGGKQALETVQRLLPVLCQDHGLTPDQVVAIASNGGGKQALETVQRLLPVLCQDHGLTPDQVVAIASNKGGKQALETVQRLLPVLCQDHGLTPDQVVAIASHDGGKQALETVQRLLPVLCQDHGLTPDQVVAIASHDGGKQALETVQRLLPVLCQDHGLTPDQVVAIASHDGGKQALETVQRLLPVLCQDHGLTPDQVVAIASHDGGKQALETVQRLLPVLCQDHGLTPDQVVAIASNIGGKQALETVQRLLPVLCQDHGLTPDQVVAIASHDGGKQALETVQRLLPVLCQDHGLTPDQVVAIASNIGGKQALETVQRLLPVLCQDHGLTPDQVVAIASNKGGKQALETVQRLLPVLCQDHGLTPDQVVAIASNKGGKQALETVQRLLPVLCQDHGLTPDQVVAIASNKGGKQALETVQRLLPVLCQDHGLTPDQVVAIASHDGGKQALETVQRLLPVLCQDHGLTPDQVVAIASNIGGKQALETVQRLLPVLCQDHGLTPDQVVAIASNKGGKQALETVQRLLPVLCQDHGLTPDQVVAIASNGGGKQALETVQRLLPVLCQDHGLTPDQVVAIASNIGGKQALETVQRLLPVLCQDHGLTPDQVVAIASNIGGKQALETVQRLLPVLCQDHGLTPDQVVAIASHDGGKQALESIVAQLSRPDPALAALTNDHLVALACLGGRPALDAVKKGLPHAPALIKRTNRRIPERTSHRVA


Tests used:
[1] = biological target: T1, S-02 (S2) NK-TALEN; test: cell_activity; monomer SSA assay; details: tags: 3xFLAG, NLS, FokI
Method: (§1) HEK293T cells (ATCC) were cultured in Dulbecco's Modified Eagle Medium (Sigma) supplemented with 10% FBS and 2 mM L-Glutamine. Cells were seeded 80,000 per well of a 24-well plate. After 4 h, cells were transfected with 200 ng of the TALEN plasmid (or 100 ng of each TALEN for hetero-dimeric pairs) and 10 ng of the corresponding SSA reporter plasmid using calcium phosphate transfection. Three control transfections were included: 1) 200 ng of an empty TALEN backbone and 10 ng of an SSA reporter plasmid, 2) 200 ng of an empty TALEN backbone and 10 ng of a pEGFP plasmid, and 3) 100 ng of each GFP-ZFN and 10 ng of an SSA reporter plasmid. Cells were harvested 48 h after transfection. The percentages of pEGFP-transfected samples expressing GFP were determined using an Accuri C6 flow cytometer, as an indication of transfection efficiency. Genomic DNA was isolated using QuickExtract DNA extraction solution (Epicentre) as described20. Sample were PCR amplified for 35 cycles (95° C., 30 s; 60° C., 30 s; 72° C., 60 s) in a 50 μl reaction that contains 2 μl of the extracted DNA, 2.5 μl of each 10 μM target region amplification primer (SSA-Cell-F4, 5′-[…] (SEQ ID NO: 183); SSA-Cell-R4, 5′-[…] (SEQ ID NO: 184)), and 25 μl of GoTaq green master mix (Promega). PCR reactions were then separated on 2% agarose gels and the percentages of SSA-repaired products were quantified using ImageJ.

[2] = biological target: T2, S-07 (S7) NK-TALEN; test: cell_activity; monomer SSA assay; details: tags: 3xFLAG, NLS, FokI
Method: as §1

| Binder | activity [1] | activity [2] |
| --- | --- | --- |
| S-02 half-site (dsDNA) DNA 1: GCACCTGACTCCTGT DNA 2: ACAGGAGTCAGGTGC | 23 % SSA |  |
| S-07 half-site (dsDNA) DNA 1: CACCTTGCCCCACAGGGCAGTAAC DNA 2: GTTACTGCCCTGTGGGGCAAGGTG |  | 7.5 % SSA |
